Results published in patent publication US20250367270A1.

Molecular target: SARS-CoV-2 recombinant spike HexaPro protein (SARS-CoV-2) (UniProt P0DTC2)
Experiment: SPR

“ACE2 monomer construct (SS-ACE2-Linker) (from UniProt Q9BYF1 19-614)” gave a Kd of 72 nM.
